Data: paper PMC2111714

Molecular target: Cross-linked succinyl Con A (resuccinylated) (Canavalia ensiformis (jack bean))
Assay: radioligand binding

For “Dolichos biflorus lectin (natural protein)”, the glycoprotein specifically bound was 96 ng/plate.
